Substrate in the series: NC(=O)c1cccnc1
Nature of the series: purified protein, by the assay type. The settings on record: other: mouse enzyme; saturating NAD+ and peptide; pH 7.8. The format is biochemical.

The results in this text go back to patent publication US8835467B2, “SIR2 regulation” (Albert Einstein College of Medicine of Yeshiva University, priority 2003, dated 2014).

Description: After 2 hours, aliquots of 10 μL removed at 0, 30, 60, 90 and 120 min. Each aliquot was combined with 50 μL 50 mM ammonium acetate pH 5.0 to quench and assayed by HPLC for deacetylation products and NAD^+. The chromatograms (260 nm) were obtained using 50 mM ammonium acetate pH 5.0 as eluant on a semi-preparative Waters C-18 column (2.0 mL/min flow rate). Peaks for ADPR and 3′-O-Acetyl-ADPR were quantified by integration. The peak for NAD^+ was collected and radiation counted.

B1: Mouse SIR2 enzyme (SIR2α) (Mus musculus) (protein)
chain: MADEVALALQAAGSPSAAAAMEAASQPADEPLRKRPRRDGPGLGRSPGEPSAAVAPAAAGCEAASAAAPAALWREAAGAAASAEREAPATAVAGDGDNGSGLRREPRAADDFDDDEGEEEDEAAAAAAAAAIGYRDNLLLTDGLLTNGFHSCESDDDDRTSHASSSDWTPRPRIGPYTFVQQHLMIGTDPRTILKDLLPETIPPPELDDMTLWQIVINILSEPPKRKKRKDINTIEDAVKLLQECKKIIVLTGAGVSVSCGIPDFRSRDGIYARLAVDFPDLPDPQAMFDIEYFRKDPRPFFKFAKEIYPGQFQPSLCHKFIALSDKEGKLLRNYTQNIDTLEQVAGIQRILQCHGSFATASCLICKYKVDCEAVRGDIFNQVVPRCPRCPADEPLAIMKPEIVFFGENLPEQFHRAMKYDKDEVDLLIVIGSSLKVRPVALIPSSIPHEVPQILINREPLPHLHFDVELLGDCDVIINELCHRLGGEYAKLCCNPVKLSEITEKPPRPQKELVHLSELPPTPLHISEDSSSPERTVPQDSSVIATLVDQATNNNVNDLEVSESSCVEEKPQEVQTSRNVENINVENPDFKAVGSSTADKNERTSVAETVRKCWPNRLAKEQISKRLEGNQYLFVPPNRYIFHGAEVYSDSEDDVLSSSSCGSNSDSGTCQSPSLEEPLEDESEIEEFYNGLEDDTERPECAGGSGFGADGGDQEVVNEAIATRQELTDVNYPSDKS
notes: purchased Upstate Group
Broadly, the Km is the concentration of substrate that gives half-maximal velocity. Consider B1, for which the Km is 127 µM.
